According to publication PMC314469, “Protein Interaction Networks by Proteome Peptide Scanning” (PLoS Biology, 2004):

T1: Myo5 SH3 (MYO5_YEAST), Q04439
T1 chain: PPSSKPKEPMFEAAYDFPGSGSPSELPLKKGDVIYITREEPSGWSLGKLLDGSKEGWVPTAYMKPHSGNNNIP

T2: Yhr016c SH3 (YSC84_YEAST), P32793
T2 chain: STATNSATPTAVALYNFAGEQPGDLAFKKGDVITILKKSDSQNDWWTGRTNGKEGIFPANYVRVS

T3: Yfr024 SH3 (LSB3_YEAST), P43603
T3 chain: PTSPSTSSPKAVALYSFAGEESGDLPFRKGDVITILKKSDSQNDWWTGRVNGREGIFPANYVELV

T4: Rvs167 SH3 (RV167_YEAST), P39743
T4 chain: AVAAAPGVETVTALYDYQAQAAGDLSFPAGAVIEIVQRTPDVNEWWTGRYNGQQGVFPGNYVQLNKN

T5: Boi1 SH3 (BOI1_YEAST), P38041
T5 chain: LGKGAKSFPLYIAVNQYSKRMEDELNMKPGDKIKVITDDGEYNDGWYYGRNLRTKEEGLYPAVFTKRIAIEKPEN

T6: Boi2 SH3 (BOI2_YEAST), P39969
T6 chain: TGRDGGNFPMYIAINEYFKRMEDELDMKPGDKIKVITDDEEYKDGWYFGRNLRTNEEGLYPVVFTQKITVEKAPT

B1: YKL086W 103-116 (peptide)
chain: PVRSRVLPATPRQI
B2: YOR181W 378-391 (peptide)
chain: QATGRRGPAPPPPP
B3: YGL173C 401-414 (peptide)
chain: QLQEKLSPDLPDEE
B4: YIL122W 8-21 (peptide)
chain: QSEEKEKPKGPMAV
B5: YDR449C 169-182 (peptide)
chain: QNGLRFNPDVPKLW
B6: YGR143W 154-167 (peptide)
chain: QPPDRNLPSHPSSN
B7: YPL137C 764-777 (peptide)
chain: PYMYKYLPRFPNLK
B8: YHR036W 42-55 (peptide)
chain: QLINRFMPHFPSSP
B9: YDL076C 274-287 (peptide)
chain: QRLDRDKPHEPNGY
B10: YGR061C 462-475 (peptide)
chain: QFALKNTPITPGSS
B11: YHL007C 236-249 (peptide)
chain: QHKPKVKPSKPEAK
B12: YJL128C 89-102 (peptide)
chain: QIVNKPLPPLPVAG
B13: YJL020C 471-484 (peptide)
chain: QELPRAIPVMPFVD
B14: YDR122W 964-977 (peptide)
chain: QGSNKYSPSSPLTT

Target: T1, Myo5 SH3 (MYO5_YEAST), Q04439
Assay: SPOT array

Binder	normalised SPOT signal, Boehringer light units (BLU); mean over the file's lines of this peptide
B1	1470
B2	607
B3	216
B4	197
B5	260
B6	156
B7	382
B8	518
B9	218
B10	111
B11	956
B12	249
B13	118
B14	171

Target: T2, Yhr016c SH3 (YSC84_YEAST), P32793
Assay: SPOT array

Binder	normalised SPOT signal, Boehringer light units (BLU); mean over the file's lines of this peptide
B1	1380
B2	37.1
B3	16.4
B4	18.1
B5	8.3
B6	19.4
B7	432
B8	316
B9	19.3
B10	33.6
B11	9.7
B12	28.6
B13	118
B14	146

target: Sho1 SH3 (SHO1_YEAST), P40073; assay: SPOT array
Sequence (P40073 295-366): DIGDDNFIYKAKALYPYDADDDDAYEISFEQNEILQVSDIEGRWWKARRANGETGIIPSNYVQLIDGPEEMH

Binder	normalised SPOT signal, Boehringer light units (BLU); mean over the file's lines of this peptide
B1	28200
B2	63.2
B3	27.1
B4	36.1
B5	37.6
B6	78.5
B7	1590
B8	323
B9	37.3
B10	36.4
B11	88.9
B12	60100
B13	11.6
B14	44.3

Target: T3, Yfr024 SH3 (LSB3_YEAST), P43603
Assay: SPOT array

Binder	normalised SPOT signal, Boehringer light units (BLU); mean over the file's lines of this peptide
B1	15900
B2	49.6
B3	11.2
B4	109
B5	86.7
B6	48.8
B7	1150
B8	2780
B9	105
B10	66.9
B11	12.8
B12	1720
B13	700
B14	74.9

Target: T4, Rvs167 SH3 (RV167_YEAST), P39743
Assay: SPOT array

Binder	normalised SPOT signal, Boehringer light units (BLU); mean over the file's lines of this peptide
B1	10400
B2	30.1
B3	59.4
B4	20.6
B5	22.1
B6	48.2
B7	920
B8	716
B9	52
B10	79.8
B11	70.6
B12	41.5
B13	57
B14	37.5

Target: T5, Boi1 SH3 (BOI1_YEAST), P38041
Assay: SPOT array

Binder	normalised SPOT signal, Boehringer light units (BLU); mean over the file's lines of this peptide
B1	2030
B2	102
B3	49.4
B4	88.1
B5	64.6
B6	19.4
B7	177
B8	273
B9	104
B10	142
B11	2560
B12	56.1
B13	-0
B14	34.7

Target: T6, Boi2 SH3 (BOI2_YEAST), P39969
Assay: SPOT array

Binder	normalised SPOT signal, Boehringer light units (BLU); mean over the file's lines of this peptide
B1	35.9
B2	11.1
B3	27.9
B4	16.6
B5	0
B6	13.7
B7	991
B8	325
B9	12
B10	0
B11	40.3
B12	13.7
B13	22.2
B14	31.3
